From patent US20210145978A1, “ANTI-CD71 ACTIVATABLE ANTIBODY DRUG CONJUGATES AND METHODS OF USE THEREOF” (AbbVie Inc., priority 2017, published 2021) come the findings set out here.

Data set [1] in a line: Tolerability and stability of AADCs and ADC in cynomolgus monkeys (Example 10). The class given is in vivo, cynomolgus monkey. The procedure: In this study, cynomolgus monkeys were treated intravenously with the indicated AADC or ADC with the indicated dosage at days 1 and […]. Only one dose was tolerated for anti-CD71 TF02.13-3011-vc-MMAE AADC and only one dose was administered for anti-CD71-vc-MMAE E2 (i.e. having a DAR of ˜2) ADC. The stability of the activatable antibodies (i.e. total activatable antibody vs intact activatable antibody) in the samples obtained from each animals was performed as described in Example 9 using reverse phase LC/MS/MS)
The body weight loss was determined on the lowest measure weight following the 1st administered dose. The baseline neutrophil count was at least 1000 per μL.

Data set [2] is described as follows: Non-GLP pilot toxicity studies in cynomolgus monkeys. It is filed as in vivo, cynomolgus monkey. How it is done: Terminal necropsies were performed on the test animals on day 29 (7 days after the last dose). Assessments during the study included clinical signs, body weight, food consumption, clinical pathology, anatomic pathology, TK, and immunogenicity.
For data set [3], the system named is cynomolgus CD71 on CHO cells. Description: FACS binding to cells, Table 3B. The conditions noted are these: binding curves of FIG. 3D; read-out: CHO w/ Cynomolgus CD71 FACS EC50. An excerpt: (§1) FIGS. 3C and 3D show in a FACS assay the exemplary results that anti-CD71 activatable antibodies of the present disclosure and anti-CD71 conjugated activatable antibodies of the present disclosure bind cells expressing human CD71 (FIG. 3C) and cynomolgus CD71 (FIG. 3D) with a higher dissociation constant and lower affinity than that of the corresponding protease-activated anti-CD71 activatable antibody or protease-activated anti-CD71 conjugated activatable antibody of the present disclosure.
(§2) In the exemplary study shown in FIGS. 3C and 3D, the binding of the antibodies of the present disclosure to the indicated cell lines were performed using a standard FACS labelling method. […] In addition, the binding affinity of the anti-CD71 activatable antibody (anti-CD71 TF02.13-2011 (Act)) and the E2 (i.e. having a DAR of ˜2) anti-CD71 conjugated activatable antibody (anti-CD71 TF02.13-2011-vcMMAE E2 (Act)) were also assayed following protease-activation that cleaved the cleavable moiety therein. Each test article was applied at the indicated concentrations and subsequently detected with an Alexa Fluor 647 labeled goat anti-human IgG secondary antibody.
For orientation: In flow cytometry, cells or beads pass a laser one at a time.

A further data set has as its target T1, CD71 on NCI H292 cells (Homo sapiens, UniProt P02786).
T1 construct: endogenous in cells; host or cells: NCI-H292
Description: FACS binding to NCI H292 cells, masking efficiency (Example 3). Particulars: relative to parental Ab 21.12. The procedure: Binding of anti-CD71 activatable antibodies of the present disclosure to the NCI H292 (also referred to herein as H292) cell line was evaluated using FACS. Briefly, cells were labeled with huCD71 antibody or activatable antibody at a range of concentrations and subsequently detected with an Alexa Fluor 647 labeled goat anti-human IgG secondary antibody to determine a binding curve.

A further data set concerns the target T2, human CD71 on H292 cells (Homo sapiens, UniProt P02786).
T2 construct: endogenous in cells; host or cells: NCI-H292
Description: FACS binding to cells, Table 3B. Particulars: binding curves of FIG. 3C.
From the text: as §1, §2

The mark [4] stands for this setting: 0.6 mg/kg, q3wx2, non-GLP study.

T1 sequence (P02786 whole entry): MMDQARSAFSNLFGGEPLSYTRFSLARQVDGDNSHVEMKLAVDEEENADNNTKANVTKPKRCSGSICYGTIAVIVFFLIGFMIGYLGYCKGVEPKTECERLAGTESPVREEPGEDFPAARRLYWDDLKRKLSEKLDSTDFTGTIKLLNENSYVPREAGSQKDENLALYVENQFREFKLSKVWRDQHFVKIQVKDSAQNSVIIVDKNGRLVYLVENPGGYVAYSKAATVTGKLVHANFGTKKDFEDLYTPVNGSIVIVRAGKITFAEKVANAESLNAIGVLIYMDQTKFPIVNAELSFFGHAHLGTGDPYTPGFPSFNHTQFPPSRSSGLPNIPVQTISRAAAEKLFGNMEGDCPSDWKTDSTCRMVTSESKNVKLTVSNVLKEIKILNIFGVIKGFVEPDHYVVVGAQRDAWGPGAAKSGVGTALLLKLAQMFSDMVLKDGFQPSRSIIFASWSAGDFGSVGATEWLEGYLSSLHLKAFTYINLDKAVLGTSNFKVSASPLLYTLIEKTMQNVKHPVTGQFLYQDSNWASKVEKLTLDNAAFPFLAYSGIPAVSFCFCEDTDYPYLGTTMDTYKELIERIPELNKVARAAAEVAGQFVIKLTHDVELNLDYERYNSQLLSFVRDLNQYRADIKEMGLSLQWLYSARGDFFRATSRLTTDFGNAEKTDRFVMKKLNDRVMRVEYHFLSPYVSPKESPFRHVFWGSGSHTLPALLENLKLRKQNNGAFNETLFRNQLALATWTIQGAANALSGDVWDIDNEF
T2 sequence (P02786 whole entry): as above

B1: Ab21.12-vc-MMAE E2: unmasked parental anti-CD71 antibody drug conjugate (ADC), Ab21.12 with vc-MMAE (conjugate)
VH: QVQLVQSGAEVKKPGASVKMSCKASGYTFTSYWMHWVRQAPGQGLEWIGAIYPGNSETGYAQKFQGRATLTADTSTSTAYMELSSLRSEDTAVYYCTRENWDPGFAFWGQGTLITVSS
VL: DIQMTQSPSSLSASVGDRVTITCSASSSVYYMYWFQQKPGKAPKLWIYSTSNLASGVPSRFSGSGSGTDYTLTISSMQPEDFATYYCQQRRNYPYTFGQGTKLEIK
modifications: vc-MMAE conjugate, DAR ~2
notes: unmasked parental anti-CD71 antibody drug conjugate (ADC), Ab21.12 with vc-MMAE
For the molecule B1, the “Avg. Neutrophil Count ± SD (per μL)” value in data set [1] (2 mg/kg IV, one dose, baseline at least 1000 per μL) is 70 per μL. Besides, the “Body weight loss” value in data set [1] (2 mg/kg IV, one dose, lowest weight after 1st dose) is reported as ~8%. In data set [1] (non-masked E2 ADC, cynomolgus monkeys (2 mg/kg in Table 5)), the “lethality, time after the first dose” value was ≤ 8 days. Moreover, in data set [2] (setting [4]), the “Average neutrophil count ± SD” value is listed as 280 ± 42, the Body weight loss amounted to 4% and the Tolerability result is listed as “Tolerated”. Besides, in data set [2] (2 mg/kg, q3wx2, non-GLP study), the “Average neutrophil count ± SD” value worked out at 70 and the Body weight loss was 6%. Further, the test article-related findings entry in data set [2] (0.6 to 18 mg/kg IV bolus) is on record as “consisted primarily of hematologic toxicity”. The “toxicity (hunched posture, decreased activity, body temperature elevation)” value in data set [2] (6 and 2 mg/kg) is “Severe toxicity”. Also, the “time to lack of tolerability after a single dose” value in data set [2] (single dose at 2 mpk) was ≤ 8 days. The mortality result in data set [2] (single dose at >2 mg/kg) is listed as “mortality attributed to secondary infection was observed”.

B2: Ab 21.12-vc-M MAE: anti-CD71 Ab 21.12 conjugated to vc-MMAE; DAR not stated in Table 3B (conjugate)
VH: B1 VH
VL: B1 VL
modifications: vc-MMAE conjugate
For B2, the EC50 in data set [3] is 291 pM.

B3: Ab21.12: humanized anti-CD71 antibody, VH of SEQ ID NO: 5 and VL of SEQ ID NO: 7 (antibody, V domains shown)
VH: B1 VH
VL: B1 VL
As to B3, in the data set with CD71 on NCI H292 cells, the “Masking Efficiency” value worked out at 1. The molecule also returned an EC50 with human CD71 on H292 cells of 1020 pM.
